Assay results from patent publication US20190083585.

Tests used:
[1] = system: fluorescently quenched α-gliadin hexapeptide analogue QXL520-PQPQLP-K(5-FAM)-NH2
[2] = system: T1, immunodominant α9-gliadin peptide QLQPFPQPQLPY
T1 sequence: QLQPFPQPQLPY

Chain of glutamine-specific endoprotease EP-B2 (native) (chain, as listed by the source): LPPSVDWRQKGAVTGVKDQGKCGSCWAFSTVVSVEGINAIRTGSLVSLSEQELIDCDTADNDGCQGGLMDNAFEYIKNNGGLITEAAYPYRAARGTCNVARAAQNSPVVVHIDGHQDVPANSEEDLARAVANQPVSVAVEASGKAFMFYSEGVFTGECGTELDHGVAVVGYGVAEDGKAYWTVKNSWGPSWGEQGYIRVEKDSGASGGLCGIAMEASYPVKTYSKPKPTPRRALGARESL

prolyl endopeptidase SC PEP (native)
catalytic efficiency at pH 4 [1]: 1.6 M^-1s^-1 | fold lower level of activity than KumaMax [1]: roughly 350-fold lower level of activity on this substrate than KumaMax | catalytic activity at pH 4 (Suc-APR-pNA): did not exhibit any significant activity | catalytic activity at pH 4 (Suc-AQP-pNA): did not exhibit any significant activity | catalytic efficiency at pH 7 (Suc-AQP-pNA): 2390 M^-1s^-1 | catalytic activity at pH 4 (Suc-APQ-pNA): did not exhibit any significant activity | degradation of the peptide after 50 minutes (LC-MS, pH 4, 37° C.) [2]: no significant degradation of the peptide was observed | catalytic activity at pH 4 (Suc-APE-pNA): did not exhibit any significant activity

glutamine-specific endoprotease EP-B2 (native)
activity at pH 4 [1]: only very low levels of activity were detected | activity (Suc-APR-pNA): no activity | activity (Suc-AQP-pNA): no activity | activity (Suc-APQ-pNA): no activity | activity (Suc-APE-pNA): no activity
